In a protein production outcome set (Wang et al. 2014):

Assay: label from the status in PepcDB records

Row | Sequence | protein production
1 | MTIMLTPMQTEEFRSYLTYTTKHYAEEKVKAGTWLPEDAQLLSKQVFTDLLPRGLETPHHHLWSLKLNEKDIVGWLWIHAEPEHPQQEAFIYDFGLYEPYRGKGYAKQALAALDQAARSMGIRKLSLHVFAHNQTARKLYEQTGFQETDVVMSKKL | not failed
2 | MTIPLIIGGVLLAILILLILVFITKYRTVGPDEALIVTGNWLGGGKNVVTTDDGKKIKIIRGGGTFVVPIMQRAEPLSLLNYKLEVGTRDTYTKQGVPVTVNGVSIIKVGSTIEEVSTAAEQYLGKETEELKVEAKEVLEGHLRAILSSMTVEDAYSNREQFAQKVHEVASTDLKKMGLRIVSFTIKEIMDKNGYLDALGQPQIATVKRDATIANAEREKEARIEKARAEKEAKEAEYQRDAQIAEAEKHKELKVQSYKREQEQARADADLSYELQQAKAQQGVTEEQMRVKIIEREKQIELEEKEIARREKQYDAEVKKKADADRYAVEQSAEAEKVKQIKKADADQYKIEAEARARAEEVRVEGLAKAEIEKAQGQAKAEVQKAQGTAEADVIRLKGLAEAEAKQKIAEAFELYGQAAIMDMVLKMLPSYAKEVASPLSNIDKITVVDTGGGGKNSGAGKVAGYATDLMATMQETLKASSGIDLKELLEGFAGKGAVQQLSSDKPVVSVVEDEKKEVEKDKELEHHHHHH | failed
3 | MTIPTSYLNHTDAEAARKARATYRDGLVAPTSGIAPGFTQANMIVLPRDWAFDFLLYAQRNPKPCPVLDVSDPGSPTTLLAPGADLRTDLPLYRIWRDGKLAEETADATSAWAERDDLVAFLIGCSFTFETPMVEAGIEIRHMTDKSNVPMYLTNRPCRPAGRLKGNMVVSMRPIPASRVADAATISGRFPAVHGAPVHVGAPEQIGISDLSKPDFGDAVRIEPGEVPVFWACGVTPQAAVMASGVPFAITHAPGHMFITDIPDTAYHALEHHHHHH | not failed
4 | MTIRISGKSISIGEALRSRVSERTEEVLRKYFDGNYSGHFTLSKDGFGFRTDCALHLDSGITLEAESNAADAYVSADQALVQIEKRLRRYKSRLKDRSSRKAHAEANALAELSTPVDAASYVIEAPGDEEHHEDAYNPVIIAEATTAMKRLSVSEAVVELDLTGAPVVVFLHGSSGRVNIIYRRADGNIGWIDPPVLNGAN | failed
5 | MTITNSKAEAWELIGNQFWTIGRVAARPSDRENDIFLENIVPGSTVAVIGASTRFLIEKALERGASVTVFDFSQRMCDDLAEALADRCVTIDLLDITAEIPKELAGHFDFVLNDRLINRFTTEEARRACLGMLSLVGSGTVRASVKLGFYDIDLKLIEYGEQSGTLAKFFDPSDKTFHFREAGDVLDRALVPHGLIDKPTLLEWYRRRGKETRFDDEDVRALLSHDVVNARGYVTLEKAVELPDAPNTMLYQFSRRAG | not failed
6 | MTIVWRDCFCVRSHSSNGLFMDVENNTAFWITGYQEARLGPVPEPTFPASETPYVIVRSRYSGISRGTESLVYNNQVPENEYQRMRAPFQEGEFPFPVKYGYASVGEVVDGPEALLGRNVFCLYPHQQRYAVPASAVLPLPAKVPAERAVLAANMETAVNGVWDGQPAVGDRIAVIGLGVVGLLVAWLVNRIPGVELIGVDTNEGRRSVAQALGVRFTTEPDIQNCDLVFHASGHPSGLAKALSLAGTDARVIELSWYGDTPVSVPLGHAFHPNRLTLKSSQVGQLSPERRPRWHHRRRLELALSMLSEPALDALISGESRFEQLPQVAGNILMPGADALCHRIVY | failed
7 | MTKANWTLSDARDTYAIEHWSDGYFNIAPEGEVVVCPQRGSVEGGVSIAAIARGVRAEGLSLPVLMRFPHILHDRVRLLTSAFGKARAAYHYGAGYTPVYPIKVNQQRNVIENILRAGGVGLEAGSKSELLAILALAESGTIICNGYKDRAYIRLALIGSRLGLRVFIVVEKLSELELVVSESEALGIAPQLGVRIRLSSISAGKWQNSGGEKSKFGLHAGEILKFLKRLERAGGLGWVRLMHFHMGSQVANINDVKTALREASRYYAELRRLGAPVDHVDVGGGLGIDYEGTHSVSDCSINYSVDEYAHSIVRAFSELCAEQGLPQPDLITEAGRAMSAHHAVLVTNVVDIEAATYDASPVSASVAQPLKDLEDLLRRVDSESVLGIYHDAEFDLAETRTMYVQGKIGLDQLAEAERLHATLCREVQQRLDIRLRAHRAVLDELNERLADKLFCNFSVFQSIPDAWAIDQIFPVMPLQRLGEEPTRRAVIQDMTCDSDGRINAYIDRQSIENTLRMHAPAPGEPYLIGFFLVGAYQEILGDMHNLFGDTHSVDVELDGAGGYTFTHTRRGDGADDLLRYVHIDPDELERSYRKKLIEADIPMHQRKQYESELIAGLSNYTYLEELEHHHHHH | not failed
8 | MTKHRWSPVSSPPSRKPENVQVINLLPVAAGIIAILLALSFFGQVGAALLAITLALILATALNPVARWLERWMPRPAAGALTVLLVVLALVLLGLVAVPPLVSQGSKLTSSLPTSIPELEAQINALIDRYPAINSVLTEASVHRLIQQAGSFAANAAKGLPNIVSTFVGGVFMGLVMLVMVVFVLSNPVPLVNGVLGAVPPRHRLPAARALAQILKQLGGWGRATVLVMLVTGSCTALGLMLLKVDNWLIFGILAALGELVPNIGPIVATIPSVLFAAADDPQKGLYVALFVLVFQQVSGFVLGPFLLGGAGKLHPLSVTVGVLLFGSVFGIVGAFLTVPFLIIIKAIYQEFYLQDAPDIPDAVAMALISGKVEEQLDREEEQREAIDGQLQAARDEELQRQLEEGDLDLAAVLEHPESEPGNETTVEHSQTVISPTAQNPEQK | failed
9 | MTKIPMFELEEAIDRQPLTVAPTLPVAQVLAVMERQHSSYVLLMESNQTLVGIFTERDLVRLTAIGITITSTPIEEVATSTVTTIQESDIYDVIRTLNLFRQYNVRHLPVVNATHQLIGIMTYEGIRRLLKPIDLLRLWRVSEVMVKSIICADRYQSALSLAELMSDRLISCVVITEKDPSGFPKPIGLVTERDILHLQVQGADLSQTIAADFMGSPPVFIQASDTLWQANQYMRARKIRRLLVVDERNIMVGLLTQTSLIHMIDPVEATLTIETLQQMVGERTVALDAANEKLERKALERKRAKAALQQQIYRERLVNRTAQRIRESLQLDEILVTTVSEVRQFLKAERVLIYRFQPNQQGAIAAESTDSNQTLIQGNAELEAILQEIDPTFYSCDRIHSIPDLQAQGLELTNATLLKRLQLRASLVAPIFAQEILWGLLIVGQNSQPRRWEKLEIDLLKQLATQVGIAIQQARLYAQLAAANQQLLRLAQSDGLTGLANRRHFDQCLDIEWQRAIREQHPLGLILIDIDCFKQFNDTYGHQAGDDCLKAVATALTQVIARPADLVARYGGEEFVVILPNTNEQGILQIAESMRSAVQQLKIPHRSSSVCSSVSLSLGAVTWVPTPHKSPEALIGAADQALYQAKELGRNRVCLGGVRLLETT | failed
10 | MTKITVLSGKGGTGKTTVSVNMAKALSESYRVQLLDADVEEPNDHIFFNVDVSFEEPVHLMIPVVDNSVCIRCGECASTCQFGAISVFPSGTFVFESLCHGCGACSIMCPVNAISERPKEIGKIRFGTADGNISFGMGILNIGERTGVPVIRKLKKHIDEKADVVIVDAPPGTSCPVVESLRNTDFALLVTEPTAFGLHDLKLAVELTKEMGIPSGIVVNRYIPGNTIIEEFADEEGIPVLLKIPFKREIASLCAEGKLIVEAFQDMKKDFLELFEKIEVMVRLEHHHHHH | not failed
11 | MTKKILTTPIKDEDLADIKAGDIIYLNGHIVTCRDVAHRRLIEGGRELPVNVAGGAILHAGPIVRPIKGTEDKFEMVSVGPTTSMRMEKFEKEFIAKTGVKLIVGKGGMGKGTEEGCMEHKALHCVFPAGCAVVAAVCVEEIEDAQWRDLGMPETLWVCRVKEFGPLIVSIDTHGNNLFEQNKVIFNQRKEIVADEICKHVSFIK | failed
12 | MTKKIVLAGGTGFIGQYLQQRFEENGDEVVIISRRAPHVSWDDSEAVREALEGADMLVNLAGKSVNCRYNEQNKKAILQSRIDTTNILGEAVLACERPPKLWLNSSTATIYRHAEDRAMTEANGELGSGFSENVAKAWEEEFFSFQLPNTRQAALRISIVLGGDGGALTPYRYLTKFGLGGKQGSGKQMVSWIHVEDVFRVIRFIEEQEALEGVINCTSPQPVSNKVLTTAIRRAMNVKVGLPATAWMLEIGTFLLRTESELILKSRWVLPERLLQAGFTFQYETIDDALSEILVQSKSASHLLEHHHHHH | failed
13 | MTKKKAHKPGSATIALNKRARHEYFIEEEFEAGLALQGWEVKSLRAGKANISDSYVLLRDGEAFLFGANITPMAVASTHVVCDPTRTRKLLLNQRELDSLYGRVNREGYTVVALSLYWKNAWCKVKIGVAKGKKQHDKRSDIKEREWQVDKARIMKNAHR | not failed
